This assay addresses MTTR (recombinant monomeric version of TTR), as non-native oligomers (human) (UniProt P02766).

Take “VAVHVF (truncated probe B-1, minimal binding competent sequence) (peptide)”: the incorporation compared to probe B-1 was 90 % less.

Source of the values: paper PMC5628019.
